B1: 2D10 (hybridoma): murine/human chimeric anti-OX40L antibody purified from hybridoma supernatant (antibody, V domains shown)
VH: EVQLVESGGGLVQPGGSLRLSCAASGFTFSNYAMNWVRQAPGKGLEWVSTISGSGGATRYADSVKGRFTISRDNSRNTVYLQMNSLRVEDTAVFYCTKDRLIMATVRGPYYYGMDVWGQGTTVTVSS
VL: DIQMTQSPSSLSASVGDRVTITCRASQSISSYLNWYQQKPGKAPNLLIYAASSLQSGVPSRFSGSGSETDFTLTISSLQPEDFATYYCQQSHSVSFTFGPGTKVDIK
B2: 9H04 (hybridoma): anti-OX40L antibody from hybridoma; VH Seq ID No:66, VL Seq ID No:80 (antibody, V domains shown)
VH: QVQLVESGGGLVKPGGSLRLSCAASRFTLSDYYMTWIRQAPGKGLEWVSYISSSGNTIYYADSVKGRFTISRDNAKNSLYLQMNSLRAEDTAVYYCARDLSGSYWDYYYGMDVWGQGTTVTVSS
VL: AIQLTQSPSSLSTSVGDRVTIACRASQGINNALAWYQQKPGKAPKLLIYDASSLESGVPSRFSGSGSGTDFTLTISSLQPEDFATYYCQQFNSYPRTFGQGTKVEIK
modifications: 09H04 - VH Amino Acid Sequence; 09H04 - VL Amino Acid Sequence
B3: 10A07 (hybridoma): murine/human chimeric anti-OX40L antibody purified from hybridoma supernatant (antibody, V domains shown)
VH: EVQLVESGGVLVQPGGSLRLSCAASGFTFSSYIMTWVRQAPGKGLEWVSGISGSGGGTYYADSMKGRFTISRDNSKNTLYLQMNSLRVEDTAVYYCAKDRLGPITLVRGGYYYGMDVWGQGTTVTVSS
VL: DIQMTQSPSSLSASVGDRVTITCRASQSISDYLNWYQQKPGKAPKFLIYAASSLQSGVPSRFSGSGSGTDFTLTVSSLQPEDFATYYCQQSYSTPRTFGQGTRVEIK
B4: 10A07 (human): fully human anti-human OX40L monoclonal antibody; VH Seq ID No:2, VL Seq ID No:16 (antibody, V domains shown)
VH: B3 VH
VL: B3 VL
modifications: 10A07 - VH Amino Acid Sequence; 10A07 - VL Amino Acid Sequence

Key:
[1] = system: Rhesus Macaque Graft versus Host Disease (GvHD) model; conditions: Example 9, post-HSCT prophylaxis, Rhesus macaque (FIG. 7)
Source text: The effectiveness of antibody 2D10 IgG4PE as a monotherapy prophylactic for the prevention of GvHD was examined in a Rhesus Macaque model of haploidentical hematopoietic stem cell transplantation (HSCT).
All transplants were between half-sibling pairs that are mismatched at one MHC haplotype (“haploidentical-HCTs”). Recipient animals had irradiation based pre-myeloablative pre-transplant conditioning using a linear accelerator. Dose rate: 7cGy/min. Dose 1020 cGy given in 4 fractions. The leukapheresis donor animal underwent GCSF mobilisation and underwent leukapheresis using a Spectra Optia apheresis machine.
2D10 IgG4PE was dosed at 10 mg/kg i.v. according to a planned dosing schedule to take place on Day −2, Day+5, Day+12, Day+19, Day+26, Day+33, Day+40, Day+47 post-transplant.
Samples were taken during the course of the study to monitor donor chimerism (Table 4) and white blood cell counts. The primary end point was based on survival, with a survival to 15 days deemed to be a sign of successful prophylactic therapy (and compared to the documented survival of 6-8 days with no prophylaxis; Miller et al. 2010, supra). Though full pathology and histology with GvHD grading scores, markers of T-cell proliferation and activation (such as Ki-67 and granzyme B) and gene array analysis are planned, they were not available for inclusion at the time of drafting.
Scoring of clinical symptoms was based on observational assessments and clinical chemistry, classified according to the criteria set out in Table 5.
A further rhesus macaque GvHD study was conducted to determine the effect of combined post-HSCT prophylaxis with 2D10 IgG4PE and rapamycin. The study was performed as described in Example 7, with dosing as follows: 2D10 IgG4PE was administered i.v. at 10 mg/kg on Day −2, Day +5, Day+12, Day+19, Day+26, Day+33, Day+40, Day+47 and Day+56 post-transplant. Rapamycin was administered at a loading dose of 0.1 mg/kg i.m. on Day −14, followed by daily i.m. maintenance doses of 0.025 mg/kg until the scheduled termination of the study at Day+100. Rapamycin dosing was adjusted to maintain serum trough levels within the range 5-15 ng/mL.
This was a cohort study in NHP designed to determine the clinical, immunologic and molecular outcomes of OX40L blockade during allogeneic HCT. Two cohorts of transplant recipients were studied: (1) Allogeneic transplants using the OX40L-blocking human IgG4-PE antibody 1D05 (described as ‘KY1005’ in this Example 11) as monotherapy for GVHD prophylaxis (abbreviated as ‘KY1005’; n=4). KY1005 was given at a dose of 10 mg/kg starting on Days −2 and then once weekly until discontinuation on Days 54 (FIG. 8E). […] (2) Allogeneic transplants using KY1005 in combination with Sirolimus (Rapamycin) ([…]) for GVHD prophylaxis (abbreviated as ‘KY1005/Siro’; n=5). KY1005 was given at a dose of 10 mg/kg starting on Days −2 and then once weekly until discontinuation on Days 54 (FIG. 8P). […] These two OX40L-blockade groups were compared to the following cohorts, aspects of which have been described previously (Furlan et al., 2015; Furlan et al., 2016; Miller et al., 2010) (1) Autologous transplants (abbreviated as ‘Auto’, n=6 for clinical and flow cytometric data and n=4 for transcriptomic analysis) (2); Allogeneic transplants with no GVHD prophylaxis (abbreviated as‘No Rx’, n=11 for clinical and flow cytometric data and n=4 for transcriptomic analysis). (3) Allogeneic transplants using Sirolimus monotherapy for GVHD prophylaxis (LC laboratories, abbreviated as ‘Siro’, n=11 for flow cytometric analysis, n=4 for transcriptomic analysis).

CHO-S expressed hOX40L = molecular target: T1, CHO-S expressed hOX40L (Homo sapiens, UniProt P23510); assay: Binding to CHO-S expressed hOX40L and receptor neutralisation (FACS); type: cell-based
T1 construct: CHO-S cells (optionally transfected with full length human OX40L); expressed in transfected cells
T1 sequence (P23510 1-183): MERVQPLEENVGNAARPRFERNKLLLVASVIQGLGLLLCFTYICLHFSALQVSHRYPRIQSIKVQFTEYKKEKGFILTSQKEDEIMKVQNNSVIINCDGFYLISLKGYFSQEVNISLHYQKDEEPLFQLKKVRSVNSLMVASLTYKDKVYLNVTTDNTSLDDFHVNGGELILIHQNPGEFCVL
Description: CHO-S cells expressing hOX40L or untransfected CHO-S cells, diluted in FACS buffer (PBS+1% w/v BSA+0.1% w/v NaN3) were distributed to a 96 well V-bottom plate (Greiner) at a density of 1×10^5 cells per well. Cells were washed with 150 μL of PBS and centrifuged at 300×g for 3 min. Supernatant was aspirated and 150 μL of PBS added. This wash step was repeated.
25 μL of hybridoma supernatant or purified antibody from hybridoma supernatant diluted in FACS buffer was added to the washed cells and incubated for 10-15 minutes. Reference Antibody or mouse IgG1 control antibody (Sigma) were diluted in FACS buffer to 20 μg/mL and 25 μL added to cells. 25 μL of human OX40R Fc (in-house) diluted to 1000 ng/mL in FACS buffer were then added to wells. Cells were incubated at 4° C. for 30 minutes.
To detect antibody and receptor binding, 50 μL of Goat anti-human IgG-PE (Jackson ImmunoResearch) and APC anti-mouse IgG (Jackson ImmunoResearch) diluted 1 in 500 in FACS buffer was added to the cells. Cells were incubated 30 minutes at 4° C. in the dark.
To fix cells 100 μL 2% v/v paraformaldehyde was added and cells incubated for 30 minutes at 4° C., cells were pelleted by centrifugation 300×g and the plates and resuspended in 50 μL of FACS buffer. PE and APC signal intensity (geomean) was measured by flow cytometry using a BD FACS Array instrument.
% of control binding was calculated using geomean fluorescence as described in equation 1 where total binding was defined as reference antibody at 10 μg/mL and non-specific binding as mouse IgG1 antibody at 10 μg/mL. % receptor binding was calculated using Equation 3.

recombinant hOX40L = molecular target: T2, recombinant hOX40L (Homo sapiens, UniProt P23510); assay: Surface plasmon resonance, apparent affinity to human OX40L; type: binding; conditions: SPR, 25° C.; CNROR = Cannot resolve off-rate
T2 construct: cDNA encoding the extracellular domain of human OX40L was cloned into a pREP4 expression plasmid; isoleucine zipper (N); made in house; host or cells: FreeStyle CHO-S (transient)
Description: (§1) SPR analysis was carried out using the ProteOn™ XPR36 Array System (BioRad). Anti-mouse IgG (GE Healthcare BR-1008-38) was immobilised on a GLM biosensor surface using amine coupling, the surface was then blocked using 1 M ethanolamine. Test antibodies were captured on this surface and recombinant hOX40L (human and rhesus) were used at a single concentration of 256 nM, binding sensorgrams were double referenced using a buffer injection (i.e. 0 nM) to remove baseline drift and injection artefacts. Apparent affinities for the OX40L-antibody interaction were determined using the 1:1 model inherent to the ProteOn XPR36 analysis software. The assay was run using HBS-EP (Teknova) as running buffer and carried out at 25° C.

Rhesus monkey OX40L = assay: Surface plasmon resonance, apparent affinity to rhesus OX40L; type: binding, Rhesus (Macaca mulatta); conditions: SPR, 25° C.; CNROR = Cannot resolve off-rate
Description: as §1

Sequence of Rhesus monkey OX40L (as listed by the source): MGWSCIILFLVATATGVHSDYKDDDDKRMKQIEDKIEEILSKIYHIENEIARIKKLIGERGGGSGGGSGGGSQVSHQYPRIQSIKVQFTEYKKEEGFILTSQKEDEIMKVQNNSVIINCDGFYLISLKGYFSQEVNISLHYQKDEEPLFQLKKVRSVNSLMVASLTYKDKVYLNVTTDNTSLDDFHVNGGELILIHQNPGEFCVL
T2 sequence (P23510 with tags, fused parts or gaps): as the sequence (as listed by the source) above, with Q77R, E95K counted along it

| Molecule | median survival time, MST [1] [days] | FACS Binding (CHO-S expressed hOX40L) | Apparent Affinity hOX40L (nM) (recombinant hOX40L) | Apparent Affinity RhsOX40L (nM) (Rhesus monkey OX40L) |
| --- | --- | --- | --- | --- |
| CO[C@H]1C[C@@H]2CC[C@@H](C)[C@@](O)(O2)C(=O)C(=O)N2CCCC[C@H]2C(=O)O[C@H]([C@H](C)C[C@@H]2CC[C@@H](O)[C@H](OC)C2)CC(=O)[C@H](C)/C=C(\C)[C@@H](O)[C@@H](OC)C(=O)[C@H](C)C[C@H](C)/C=C/C=C/C=C/1C [rapamycin, rapamycin (sirolimus), reference compound] | 17 | – | – | – |
| B1 | – | YES | CNROR | CNROR |
| B2 | – | YES | – | – |
| B3 | – | YES | CNROR | CNROR |
| B4 | – | – | CNROR | CNROR |
